Values quoted from earlier work, collected in publication PMC9456187, “The Ambivalence of Connexin43 Gap Peptides in Cardioprotection of the Isolated Heart against Ischemic Injury” (International Journal of Molecular Sciences, 2022).

Tested on: isolated subsarcolemmal mitochondria, calcium-induced mitochondrial permeability transition
Conditions: rat heart, Gap27 at substantially higher concentrations than in present study, ref [34]
Text: The detailed mechanisms behind IPC are still debated, but multiple studies confirm that mitochondria play a crucial role in the observed infarct size limitation. IPC promotes translocation of signaling kinases to mitochondria, changes volume regulation of mitochondria, opens mitochondrial potassium channels and delays ROS-induced mitochondrial permeability transition. Connexin43 can be detected in subsarcolemmal mitochondria using immunoblotting of extracts from isolated mitochondria. The role of connexin43 in mitochondria has recently been reviewed ...

B1: Fibroblast growth factor 2: Fibroblast growth factor 2 triggers the protection of rat heart mitochondria (protein, UniProt P13109 10-154, looked up)
Fibroblast growth factor 2: PALPEDGGGAFPPGHFKDPKRLYCKNGGFFLRIHPDGRVDGVREKSDPHVKLQLQAEERGVVSIKGVCANRYLAMKEDGRLLASKCVTEECFFFERLESNNYNTYRSRKYSSWYVALKRTGQYKLGSKTGPGQKAILFLPMSAKS
Effect on (FGF2-induced) protection of mitochondria against calcium-induced permeability transition (in words): triggers the protection of rat heart mitochondria
